Reference: the supplement of paper PMC9112550, “Optimization of the antimicrobial peptide Bac7 by deep mutational scanning” (BMC Biology, 2022)

System: Escherichia coli TOP10
Experiment: shrunken log2 fold change of peptide-encoding DNA abundance (4.5 h post-induction vs induction); higher = less antimicrobial activity (less host growth inhibition)
Conditions: time post-induction: 4.5 h; library: site-saturation at positions 5, 18, 19, 20
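Also: peptides expressed intracellularly from a pBAD plasmid library in pooled LB shake-flask culture, induced with 0.3% L-arabinose, DNA abundance read by NGS, three biological replicates, DESeq2 with apeglm shrinkage.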

Sequence	shrunken log2 fold change
RRIRPRPPRLPRPRPRPLPQPRP	0.286
RRIRNRPPRLPRPRPRPTLTPRP	0.0952
RRIRHRPPRLPRPRPRPYVVPRP	0.0242
RRIRRRPPRLPRPRPRPQIQPRP	0.151
RRIRWRPPRLPRPRPRPVGPPRP	0.281
RRIRSRPPRLPRPRPRPGGHPRP	0.161
RRIRFRPPRLPRPRPRPWQLPRP	-0.234
RRIRNRPPRLPRPRPRPKWKPRP	0.0263
RRIRRRPPRLPRPRPRPWTGPRP	-0.444
RRIRYRPPRLPRPRPRPACHPRP	-0.453
RRIRFRPPRLPRPRPRPQCIPRP	-0.0639
RRIRTRPPRLPRPRPRPIYCPRP	-0.233
RRIRERPPRLPRPRPRPGAYPRP	-0.243
RRIRPRPPRLPRPRPRPVFKPRP	-0.189
RRIRSRPPRLPRPRPRPGLPPRP	0.225
RRIRFRPPRLPRPRPRPATPPRP	0.315
RRIRVRPPRLPRPRPRPYVIPRP	-0.189
RRIRERPPRLPRPRPRPVMNPRP	-0.0808
RRIRCRPPRLPRPRPRPMEGPRP	-0.00776
RRIRIRPPRLPRPRPRPEPYPRP	0.0464
RRIRQRPPRLPRPRPRPSRLPRP	0.101
RRIRWRPPRLPRPRPRPWREPRP	-0.0969

Sequence	shrunken log2 fold change
RRIRYRPPRLPRPRPRPRFTPRP	-0.17
RRIRRRPPRLPRPRPRPHFVPRP	-0.103
RRIRTRPPRLPRPRPRPEKHPRP	0.0385
RRIRTRPPRLPRPRPRPKVFPRP	-0.0334
RRIRGRPPRLPRPRPRPGRDPRP	0.358
RRIRLRPPRLPRPRPRPYHRPRP	0.0373
RRIRQRPPRLPRPRPRPEHSPRP	-0.0123
RRIRKRPPRLPRPRPRPNHHPRP	-0.182
RRIRFRPPRLPRPRPRPPWHPRP	0.087
RRIRRRPPRLPRPRPRPQRKPRP	0.347
RRIRSRPPRLPRPRPRPKFKPRP	-0.121
RRIRVRPPRLPRPRPRPVREPRP	0.3
RRIRWRPPRLPRPRPRPGFIPRP	0.0297
RRIRCRPPRLPRPRPRPPDRPRP	0.394
RRIRHRPPRLPRPRPRPMDCPRP	-0.0499
RRIRCRPPRLPRPRPRPHCCPRP	0.0538
RRIRCRPPRLPRPRPRPQVFPRP	-0.13
RRIRCRPPRLPRPRPRPNGMPRP	-0.398
RRIRCRPPRLPRPRPRPVEQPRP	-0.0247
RRIRMRPPRLPRPRPRPHWYPRP	-0.484
RRIRKRPPRLPRPRPRPKTTPRP	0.0195
RRIRERPPRLPRPRPRPQKEPRP	-0.0239

Sequence	shrunken log2 fold change
RRIRARPPRLPRPRPRPGWFPRP	0.524
RRIRKRPPRLPRPRPRPMPMPRP	0.00883
RRIRVRPPRLPRPRPRPKIYPRP	-0.309
RRIRSRPPRLPRPRPRPFHKPRP	-0.0363
RRIRYRPPRLPRPRPRPAWCPRP	-0.0756
RRIRNRPPRLPRPRPRPIAHPRP	-0.0737
RRIRFRPPRLPRPRPRPVYLPRP	-0.721
RRIRNRPPRLPRPRPRPWWYPRP	-0.361
RRIRDRPPRLPRPRPRPPFYPRP	-0.213
RRIRLRPPRLPRPRPRPEFPPRP	-0.0973
RRIRPRPPRLPRPRPRPLMGPRP	-0.0395
RRIRSRPPRLPRPRPRPGVIPRP	-0.0412
RRIRSRPPRLPRPRPRPRKYPRP	-0.312
RRIRERPPRLPRPRPRPPEMPRP	0.0477
RRIRPRPPRLPRPRPRPQVKPRP	0.205
RRIRLRPPRLPRPRPRPEIYPRP	-0.0581
RRIRWRPPRLPRPRPRPMQDPRP	-0.13
RRIRDRPPRLPRPRPRPNAMPRP	-0.0158
RRIRYRPPRLPRPRPRPFGPPRP	-0.0934
RRIRSRPPRLPRPRPRPDVYPRP	-0.0361
RRIRPRPPRLPRPRPRPNEWPRP	-0.203
RRIRGRPPRLPRPRPRPVEHPRP	0.117

Sequence	shrunken log2 fold change
RRIRERPPRLPRPRPRPVCFPRP	-0.173
RRIRHRPPRLPRPRPRPGRWPRP	0.413
RRIRPRPPRLPRPRPRPFSKPRP	-0.0785
RRIRERPPRLPRPRPRPRIKPRP	-0.598
RRIRVRPPRLPRPRPRPVRPPRP	0.555
RRIRDRPPRLPRPRPRPAFKPRP	0.0611
RRIRERPPRLPRPRPRPASMPRP	0.0524
RRIRDRPPRLPRPRPRPIYEPRP	0.0032
RRIRYRPPRLPRPRPRPAESPRP	-0.00136
RRIRERPPRLPRPRPRPYFQPRP	-0.967
RRIRERPPRLPRPRPRPQNMPRP	-1.05
RRIRKRPPRLPRPRPRPADYPRP	-0.0391
RRIRTRPPRLPRPRPRPFWSPRP	-0.178
RRIRARPPRLPRPRPRPDNIPRP	-0.256
RRIRIRPPRLPRPRPRPVQEPRP	0.00511
RRIRLRPPRLPRPRPRPEKWPRP	-0.0497
RRIRRRPPRLPRPRPRPSVKPRP	0.155
RRIRWRPPRLPRPRPRPYHRPRP	-0.201
RRIRSRPPRLPRPRPRPHGCPRP	-0.0029
RRIRDRPPRLPRPRPRPREMPRP	0.00815
RRIRTRPPRLPRPRPRPIWTPRP	0.00694
RRIRMRPPRLPRPRPRPPICPRP	0.292

Sequence	shrunken log2 fold change
RRIRCRPPRLPRPRPRPSILPRP	-0.739
RRIRHRPPRLPRPRPRPQIEPRP	-0.24
RRIRPRPPRLPRPRPRPMMGPRP	0.0538
RRIRHRPPRLPRPRPRPHRFPRP	-0.162
RRIRGRPPRLPRPRPRPNMHPRP	0.563
RRIRMRPPRLPRPRPRPGLWPRP	1.1
RRIRTRPPRLPRPRPRPYTDPRP	-0.448
RRIRIRPPRLPRPRPRPFKSPRP	-0.023
RRIRNRPPRLPRPRPRPVYWPRP	0.0175
RRIRIRPPRLPRPRPRPHLRPRP	-0.00802
RRIRLRPPRLPRPRPRPISKPRP	-0.125
RRIRCRPPRLPRPRPRPPTRPRP	0.645
RRIRGRPPRLPRPRPRPCGYPRP	0.216
RRIRLRPPRLPRPRPRPIQIPRP	0.03
RRIRWRPPRLPRPRPRPGTSPRP	0.304
RRIRDRPPRLPRPRPRPEAKPRP	2.4
RRIRKRPPRLPRPRPRPHRCPRP	0.0753
RRIRMRPPRLPRPRPRPFMYPRP	-0.219
RRIRQRPPRLPRPRPRPTYAPRP	-0.0832
RRIRKRPPRLPRPRPRPGAYPRP	0.0945
RRIRMRPPRLPRPRPRPTKHPRP	0.17
